Source: paper PMC2190564

Target: yeast actin filaments (S. cerevisiae) (UniProt P60010)
Assay: co-sedimentation

Kd: < 100 nM
stoichiometry N (Abp1p per actin (molar)): 1
Substance: native yeast Abp1p (from UniProt P15891 1-592) (natural protein)
